From the DeepSol protein solubility set

Test: soluble on expression in E. coli; label from the status in PepcDB or PDB records

Sequence | soluble on expression in E. coli
MRVMAFVQARMGSTRLPGKSLMPVWNGMGVLEMTLRRALRARTLSGVVLCTSTDPACDALETLASGLGVQAFRGPEDDVLTRYALATERFEPDAVVRICADSPLVCPEGIDALVAFFRDEGLDYAAHAMDGTGLPDGLGCEVFTAAALAQAHAEATAPEDREHVSLFIRHRPERFRQATLAADAALRAPGVSLDVDTQDDLDALRRFIMALPPSEGPFWSADAIAPLARGLHTPPQGTSMDIASDDYHDFFIRDGKLIGEFEQMYRKSRHAPWHQDEACDKWFNKVSAALVGHALDDPSVRTVFEVGSGLGYFLSQFAGEGRTLTGTDVSATAVEKARALFPGISFEVDDIRFEGRRGPYDLCLMQAVCWCIFPHMDDVVRNVTATVRPGGYLFLGECFQPLDGPFAGKDVIPTPDALIGHFSHAFDTVADVRVTRGEMGGGPIIYWLGRRRGLEHHHHHH | soluble
MRVSGSASSQDIISRINSKNINNNDSNEVKRIKDALCIESKERILYPQNLSRDNLKQMARYVNNTYVHYSGNCVLLSACLHYNIHHRQDILSSKNTASPTVGLDSAIVDKIIFGHELNQSYCLNSIDEVEKEILNRYDIKRESSFIISAENYIAPIIGECRHDFNAVVICEYDKKPYVQFIDSWKTSNILPSLQEIKKHFSSSGEFYVRAYDEKHD | not soluble
MRWNICVVGAGKIGQMIAALLKTSSNYSVTVADHDLAALAVLNRMGVATKQVDAKDEAGLAKALGGFDAVISAAPFFLTPIIAKAAKAAGAHYFDLTEDVAATNAVRALAEDSQTAFMPQCGLAPGFVGIAGAALAAEFDEIDSLHMRVGALPLYPTNALKYNLTWSTDG | not soluble
MRYFALTDLTKPTAKFTTDAMELRQISNAYLNQAQAYLQKGLKQLKKDYKNAILYTPKTEYKRFLKWKQTFLQDLNQTQKRFFIVRAQHFSYVLLFNLLDEQVEAVIATFNNFLDEHRLEAQSKQFDLDTAVNELHDYFDQLQKNTAYSEDLPTHLTQKTEQLINARNTQLTNLLNKIATTKPPLNKQQRLLASFRNYHEHLFLKNEVKKVTWLNEPRAKKESVTPDEEH | soluble
MRYFINIYVFRIKKILVLSVVNHISMDNPFSKFTNSRTIQADLSLLEENYIPDSFPHREKQINDMVTILSSIMRNSRPSNIIVYGKTGTGKTSTTKYVTRMLQEATSNVEVIYVNCEIYDSPYSILVYVANFAGGEKIPELGWPVDRIYREAVDRINGTGKFFVIVLDEMDRLIKKSGGDSLYVLLKLMTDVENVKVSMIGITNDTTLLENLDSRIKSRLNQESIVFPPYNATEIRDIIASRLEKVFGPGVVDDTAINLCAAIGAQEHGDARKAIDLMRIAIEIAIRENRLKVTEKEVYEARDKYEMNVMHEAINTLPIHSKIVLLSAIVTQEIEPNSVITGEIYENYRRICEDLGFTPLTPRRISDLLTELSDYGLIVVDERNMGKYGRTRGFSVVKEIETIKKYLMEDENLSMFKTSKMTKQARFDS | not soluble
MRYKKTLMLSIMITSFNSFAFNDNYSSTSTVYATSNEATDSRGSEHLRYPYLECIKIGMSRDYLENCVKVSFPTSQDMFYDAYPSTESDGAKTRTKEDFSARLLAGDYDSLQKLYIDFYLAQTTFDWEIPTRDQIETLVNYANEGKLSTALNQEYITGRFLTKENGRYDIVNVGGVPDNTPVKLPAIVSKRGLMGTTSVVNAIPNEIYPHIKVYEGTLSRLKPGGAMIAVLEYDVSELSKHGYTNLWDVQFKVLVGVPHAETGVIYDPVYEETVKPYQPSGNLTGKKLYNVSTNDMHNGYKWSNTMFSNSNYKTQILLTKGDGSGVKLYSKAYSENFK | not soluble
MRYLLSLSVFLIVSLNPAFAEWTGDNVEGMHSGMIINKFHSGQVDGKPYFCIEAFKPSTTITACSVKDTSIWGASYNTLYDQAMYYYTTGKRIRVYYAPDVWTNNSFVRALTANALVGFSTCISESSCFGPDRKKHKFTVH | not soluble
MRYPEHADPVITLTAGPVNAYPEVLRGLGRTVLYDYDPAFQLLYEKVVDKAQKAMRLSNKPVILHGEPVLGLEAAAASLISPDDVVLNLASGVYGKGFGYWAKRYSPHLLEIEVPYNEAIDPQAVADMLKAHPEITVVSVCHHDTPSGTINPIDAIGALVSAHGAYLIVDAVSSFGGMKTHPEDCKADIYVTGPNKCLGAPPGLTMMGVSERAWAKMKANPLAPRASMLSIVDWENAWSRDKPFPFTPSVSEINGLDVALDLYLNEGPEAVWARHALTAKAMRAGVTAMGLSVWAASDSIASPTTTAVRTPDGVDEKALRQAARARYGVVFSSGRGETLGKLTRIGHMGPTAQPIYAIAALTALGGAMNAAGRKLAIGKGIEAALAVIDADA | soluble
MSAALEKPQIIAHIQKSLNYTVFESKWIPCSAKFVCMGNFARGTGVMQIYEIQHGELQLVREIEKSKPIKCGTFGATSLQQRHLATGDFDGNLNVWNLEVPDSPVYSVKAHKEIINAIDGVGGLGIGDGAPEIVTGSRDGTVKVWDSRQKDTPVVNMEPTEGETKRDCWTVAFGHAFNDQDRCVCAGYDNGDIKLFDLRNMSLRWEKNIRNGVCSVEFDRKDINMNKLVATSLEGKFHVFDMRTQHPSKGFASVSEKAHKSTIWQVRHLPQNRDVFMTAGGAGNLHLWKYEYPAQRSKKGADDVEMGVAGSVNLLQNVTLSTQPISSLDWSPDKQGLCVCSSFDQSVRVLIVTKLNTV | soluble
MSAANPTRDDFASLLEESFTTGHSGEGQVVKGTITAIEKDMAIIDVGLKVEGRVPLKEFGVKGKDTTLKVGDTVEVYVERIENALGEAMLSREKARREESWVRLEEKFTKGERVEGVIFNQVKGGFTVDLDGAVAFLPRSQVDIRPIRDVSPLMHNPQPFEILKMDRRRGNIVVSRRTVLEESRAEQRSEIVQNLEEGQVVEGVVKNITDYGAFVDLGGIDGLLHVTDMAWRRVNHPTEILNIGQTVKVQIIRINQETHRISLGMKQLESDPWSEIGTKFPIGKKIKGTVTNITDYGAFVELEPGIEGLIHVSEMSWTKKNVHPGKILSTTQEVDVVVLEVDPAKRRISLGLKQTLENPWEAFARNHPVGSQVEGEVKNKTEFGLFIGLEGDVDGMVHLSDLDWTRPGEQVIEEYNRGDMVKAQVLDVDIEKERISLGIKQLARDTVGEAATSGELRKNAVVTCEVIGVKDGGLEVRLVDSGIETFIKRSDLSRDRDEQRPERFTVGQKVDARVIAFDKKTRKLQVSIKALEIAEEKEAVAQYGSTDSGASLGDILGAALKKQGNLEHHHHHH | soluble
MSADLKQSRLADWRQRALAFEREVGKAVIGLERPIRHILIAVFARGHVMLEGDVGVGKTTLLRAVARCLGGAYERVEGTIDLMPNDLVYHTYINELGKPQVEPGPVLKHGEELSVFFFNEVNRARPQVHSLLLRIMAEHAVSAFNREHFFPYLQVFADRNRVEKEETFEIPSAARDRFMMELHVETPADPALRRALMFDPKFHDVDRLLDTLTPGILPYREIPQIAPVIQQSVTASETLQQYALDLWEATRRPADYGVKLEGIDMDRLILAGASARGVSMMMRAARVAAWLDGRDYLVPEDIHDVFRETIGHRVFFNPVYELRRTALIDELLHAIRQKVAAPLEHHHHHH | soluble
MSAIENIVISMENATERRKHITKQFESKKLSFSFFNAYTYQSINQSINQSINQSINQSINQSINQSINQSNSILHNIEESRILTKGEKGCLISHFLLWNKCVNENFEYLKIFEDDVILGENAEVFLNQNEWLKTRFDFNDIFIIRLETFLQPVKLEKQTKIPPFNSRNFDILKSTHWGTAGYIISQGAAKYVIEYLKNIPSDEIVAVDELIFNKLVDVDNYIVYQLNPAICIQELQANQSKSVLTSGLEKERQKRSKIRKKKTLKQRLTRIKENIIRALNRKKWKEQQRIKEMQGKEIVRFMLEHHHHHH | not soluble
MSAKLISVTKPVVEGVNTAEELIAYAARVSNPENQINNKTASGLLKYCIRHKHWSIFETAFMTLELKTSRGIAAQVIRHRSFHFQEFSQRYASVMETPPPHQARFQDHKNRQNSLDTVPEDDQTWWATEQEKLYAQSMELYNKALEKGIAKECARFILPLSTPTTIYMSGTIRDWIHYIELRTSNGTQREHIDLANACKEIFIKEFPSIAKALDWVH | soluble
MSAKQKELERLLELKKKQEEQQVLNQKDMLERIKLENKYMEFLQMTSQQMEEELKKRGPVKEVEVKGKDIDPIIADYKKLYSKESWYKEPETKDGKTHLTFPSQEAAGTFFKDQAEKNRSFIVIDAATNKVLAYSNGDGKLYNGNGSLYQGGDFKASKEDFTSFKMPEREEPKMGMQL | not soluble
MSALPPVYSFPPLYTRQPNSLTRRQQISTWIDIISQYCKTKKIWYMSVDGTVINDNELDSGSTDNDDSKKISKNLFNNEDIQRSVSQVFIDEIWSQMTKEGKCLPIDQSGRRSSNTTTTRYFILWKSLDSWASLILQWFEDSGKLNQVITLYELSEGDETVNWEFHRMPESLLYYCLKPLCDRNRATMLKDENDKVIAIKVV | soluble
MSAQINNIRPEFDREIVDIVDYVMNYEISSKVAYDTAHYCLLDTLGCGLEALEYPACKKLLGPIVPGTVVPNGVRVPGTQFQLDPVQAAFNIGAMIRWLDFNDTWLAAEWGHPSDNLGGILATADWLSRNAVASGKAPLTMKQVLTAMIKAHEIQGCIALENSFNRVGLDHVLLVKVASTAVVAEMLGLTREEILNAVSLAWVDGQSLRTYRHAPNTGTRKSWAAGDATSRAVRLALMAKTGEMGYPSALTAPVWGFYDVSFKGESFRFQRPYGSYVMENVLFKISFPAEFHSQTAVEAAMTLYEQMQAAGKTAADIEKVTIRTHEACIRIIDKKGPLNNPADRDHCIQYMVAIPLLFGRLTAADYEDNVAQDKRIDALREKINCFEDPAFTADYHDPEKRAIANAITLEFTDGTRFEEVVVEYPIGHARRRQDGIPKLVDKFKINLARQFPTRQQQRILEVSLDRARLEQMPVNEYLDLYVI | soluble
MSCFRGDVDFCPECGNILPLPSRLNTITCPRCSFKISVQDFTSQVIKSSVMFNPLDQSNVAVGSAEDAELKGPVIDRKCSRCNKEGMVYHTRQMRSADEGQTVFFTCIHCRFQEKEDS | not soluble
MSCGYTGPINEQNKENIKRAIAMHAAARRTRMLQQLREGLQLYRLVDIMEKNKEVCRSHFVFEGGNDQVDSQYIVSHLDPKMSESGTLKHSKEMQILNNFQDFLMELEDGGPEDEEALCVSKVMQWLSGQAHVHLLLSERQAFKITVLFDHTCMERMPDHRICYPVDSAWTQTITFPTAHSTSLNQFKENMRIAVQQGAYFYRV | not soluble
MSDDGAFERDTTSFRHWVGDDVPPAAGRYHLYVSYACPWAHRTLLVRALLGLEDAISVSVVDPVRYDQGWTFDPEKPGCTPDHVFGGTHLRDVYTEADPEYTGRVTVPVLYDTDADTIVNNESEEIMRMLDVAFDDHAARDVDLYPEGYRDEVDRLIEDIYDPINNGVYRAGFADSQRAYDNAVDDLFEALAHYDDVLAEQRYLAGDVLTEADVAMFTTLYRFDEVYHTHFKCNRKRISDYDNLWPYLRELCQLPGVADTLYMEHVKQHYYRSHGHLNPKRLVPTGPNPAFFAPHDRDQLEHHHHHH | soluble
MSDFRLKVFLSVAKNLSFTKASQELFVSQPAITKHIQELETCYQVRLFDRQGNKISLTEAGKLLQEHSEKILEDYKRLEYEMHLLHNEYIGDLKLGASTTISQYVLPPLLANFIAKFPQVNLSLLNGNSREIEAALQEHRIDLGLVEGICRLPNLRYTTFLQDELVAVVHTGSKLSLPDEITPEDLSRIPLVLRERGSGTLDVFERALSEHNMKLSSLNVLLYLGSTESIKLFLEHTDCIGIVSIRSISRELLSGTFRVIEIKGMPMLREFCFAQPQGQESGLSQVLMQFAMHHNKKL | not soluble
MSDGKEELVNRAKLAEQAERYDDMAASMKKVTELGAELSNEERNLLSVAYKNVVGARRSSWRVISSIEQKTEGSEKKQQMAKEYREKVEKELRDICQDVLNLLDKFLIPKAGAAESKVFYLKMKGDYYRYLAEVASGDDRNSVVEKSQQSYQEAFDIAKDKMQPTHPIRLGLALNFSVFFYEILNAPDKACQLAKQAFDDAIAELDTLNEDSYKDSTLIMQLLRDNLTLWTSDAATDDTDANETEGGN | soluble
